Assay results: patent US20160287687A1 (IMMATICS BIOTECHNOLOGIES, published 2016)

Molecular target: T1, HLA-A*02:01 (human)
T1 construct: MHC monomers first loaded with a UV-sensitive peptide (not identified) that is cleaved by UV light and exchanged for the test peptide; captured on streptavidin plates, detected with anti-β2m; also called peptide-receptive MHC molecules; MHC class I
Experiment: UV-ligand exchange + anti-b2m ELISA; peptide exchange yield grade (+ >=10%, ++ >=20%, +++ >=50, ++++ >=75%)
Text: Candidate peptides for T cell based therapies according to the present invention were further tested for their MHC binding capacity (affinity). The individual peptide-MHC complexes were produced by UV-ligand exchange, where a UV-sensitive peptide is cleaved upon UV-irradiation, and exchanged with the peptide of interest as analyzed. Only peptide candidates that can effectively bind and stabilize the peptide-receptive MHC molecules prevent dissociation of the MHC complexes. To determine the yield of the exchange reaction, an ELISA was performed based on the detection of the light chain (β2m) of stabilized MHC complexes. The assay was performed as generally described in Rodenko et al. (Rodenko et al., 2006).
96 well MAXISorp plates (NUNC) were coated over night with 2 ug/ml streptavidin in PBS at room temperature, washed 4× and blocked for 1h at 37° C. in 2% BSA containing blocking buffer. Refolded HLA-A*02:01/MLA-001 monomers served as standards, covering the range of 15-500 ng/ml. Peptide-MHC monomers of the UV-exchange reaction were diluted 100 fold in blocking buffer. Samples were incubated for 1 h at 37° C., washed four times, incubated with 2 ug/ml HRP conjugated anti-β2m for 1h at 37° C., washed again and detected with TMB solution that is stopped with […]. Absorption was measured at 450 nm. […]

Binder SLTALRLLL (source gene KBTBD11) [SLTALRLLL (SEQ ID NO: 70)] has a peptide exchange yield of 20 to 50%.
